Measurements as given in patent US20250388664A1 (BIOARCTIC, published 2025).
Numbering of substitutions follows the chain as printed. In names and notes the source's numbering stands.

T1: truncated cTfR1 of SEQ ID NO:123 (cynomolgus monkey, UniProt Q5RDH6 122-760 (Pongo abelii entry))
T1 construct: also called cynomolgus TfR1
T1 chain: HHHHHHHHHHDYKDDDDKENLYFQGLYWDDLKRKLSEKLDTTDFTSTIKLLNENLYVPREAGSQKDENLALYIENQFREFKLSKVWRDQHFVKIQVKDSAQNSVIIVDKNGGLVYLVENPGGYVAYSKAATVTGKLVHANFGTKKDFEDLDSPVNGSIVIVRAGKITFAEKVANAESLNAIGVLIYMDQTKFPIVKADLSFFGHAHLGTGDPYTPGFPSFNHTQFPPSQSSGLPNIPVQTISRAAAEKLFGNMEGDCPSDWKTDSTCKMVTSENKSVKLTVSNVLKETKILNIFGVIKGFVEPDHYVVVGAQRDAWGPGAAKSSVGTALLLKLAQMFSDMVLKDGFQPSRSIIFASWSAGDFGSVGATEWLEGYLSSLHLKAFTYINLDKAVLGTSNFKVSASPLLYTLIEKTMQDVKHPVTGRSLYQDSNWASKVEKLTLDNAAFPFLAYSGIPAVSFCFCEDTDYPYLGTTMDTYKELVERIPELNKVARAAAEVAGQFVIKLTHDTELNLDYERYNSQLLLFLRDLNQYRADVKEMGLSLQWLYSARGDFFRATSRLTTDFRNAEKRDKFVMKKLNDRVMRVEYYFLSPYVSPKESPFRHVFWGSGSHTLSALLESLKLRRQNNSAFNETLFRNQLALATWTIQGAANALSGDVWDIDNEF

B1: h26D3 variant HC2 Fab (Fab, V domains shown)
VH: EVQLVQSGAEVKKPGSSVKVSCKASGYIFTDANMDWVRQAPGQGLEWIGDINPDYDTTSYNEKFKGRATLTVDKSTSTAYMELSSLRSEDTAVYYCARGGYSGSSYYHPMDYWGQGTLVTVSS
VL: DIQMTQSPSSVSASVGDRVTITCKSSQSLLYSTNQKNYLAWYQQKPGKAPKLLIYWASTRESGVPSRFSGSGSGTDFTLTISSLQPEDFATYYCQQYFIYPRTFGQGTKVEIK
notes: Single-mutant His-tagged Fab; also called Y32A
B2: h26D3 variant LC1 Fab (Fab, V domains shown)
VH: B1 VH with A32Y
VL: B1 VL with Y31A
notes: Single-mutant His-tagged Fab; also called Y31A
B3: h26D3-HC3/LC5 (Fab, V domains shown)
VH: B1 VH with A32Y, D35A
VL: B1 VL with Y97A
notes: His-tagged Fab; also called double alanine mutant of h26D3 (VH D35A, VL Y97A)
B4: h26D3 variant HC10 Fab (Fab, V domains shown)
VH: B1 VH with A32Y, Y106A
VL: B1 VL
notes: Single-mutant His-tagged Fab; also called Y106A
B5: h26D3 variant HC6 Fab (Fab, V domains shown)
VH: B1 VH with A32Y, Y55A
VL: B1 VL
notes: Single-mutant His-tagged Fab; also called Y55A
B6: h26D3 variant LC6 Fab (Fab, V domains shown)
VH: B1 VH with A32Y
VL: B1 VL with Y100A
notes: Single-mutant His-tagged Fab; also called Y100A
B7: h26D3 variant HC8 Fab (Fab, V domains shown)
VH: B1 VH with A32Y, Y60A
VL: B1 VL
notes: Single-mutant His-tagged Fab; also called Y60A
B8: h26D3-HC8/LC5 (Fab, V domains shown)
VH: B1 VH with A32Y, Y60A
VL: B1 VL with Y97A
notes: His-tagged Fab; also called double alanine mutant of h26D3 (VH Y60A, VL Y97A)
B9: h26D3 variant HC11 Fab (Fab, V domains shown)
VH: B1 VH with A32Y, Y107A
VL: B1 VL
notes: Single-mutant His-tagged Fab; also called Y107A
B10: h26D3-HC8/LC1 (Fab, V domains shown)
VH: B1 VH with A32Y, Y60A
VL: B1 VL with Y31A
notes: His-tagged Fab; also called double alanine mutant of h26D3 (VH Y60A, VL Y31A)
B11: h26D3-HC10/LC5 (Fab, V domains shown)
VH: B1 VH with A32Y, Y106A
VL: B1 VL with Y97A
notes: His-tagged Fab; also called double alanine mutant of h26D3 (VH Y106A, VL Y97A)
B12: h26D3 variant HC4 Fab (Fab, V domains shown)
VH: B1 VH with A32Y, D50A
VL: B1 VL
notes: Single-mutant His-tagged Fab; also called D50A
B13: h26D3-HC3/LC1 (Fab, V domains shown)
VH: B1 VH with A32Y, D35A
VL: B1 VL with Y31A
notes: His-tagged Fab; also called double alanine mutant of h26D3 (VH D35A, VL Y31A)
B14: h26D3 variant HC3 Fab (Fab, V domains shown)
VH: B1 VH with A32Y, D35A
VL: B1 VL
notes: Single-mutant His-tagged Fab; also called D35A
B15: h26D3-HC6/LC5 (Fab, V domains shown)
VH: B1 VH with A32Y, Y55A
VL: B1 VL with Y97A
notes: His-tagged Fab; also called double alanine mutant of h26D3 (VH Y55A, VL Y97A)
B16: h26D3 variant HC5 Fab (Fab, V domains shown)
VH: B1 VH with A32Y, D54A
VL: B1 VL
notes: Single-mutant His-tagged Fab; also called D54A
B17: h26D3-HC10/LC1 (Fab, V domains shown)
VH: B1 VH with A32Y, Y106A
VL: B1 VL with Y31A
notes: His-tagged Fab; also called double alanine mutant of h26D3 (VH Y106A, VL Y31A)
B18: h26D3-HC6/LC1 (Fab, V domains shown)
VH: B1 VH with A32Y, Y55A
VL: B1 VL with Y31A
notes: His-tagged Fab; also called double alanine mutant of h26D3 (VH Y55A, VL Y31A)
B19: h26D3 HC6 DS T120K (scFv)
scFv: HHHHHHGGGGSGGGGSGGGGSGGGGSDIQMTQSPSSVSASVGDRVTITCKSSQSLLYSTNQKNYLAWYQQKPGKAPKLLIYWASTRESGVPSRFSGSGSGTDFTLTISSLQPEDFATYYCQQYFIYPRTFGCGTKVEIKGGGGSGGGGSGGGGSGGGGSEVQLVQSGAEVKKPGSSVKVSCKASGYIFTDYNMDWVRQAPGQCLEWIGDINPDADTTSYNEKFKGRATLTVDKSTSTAYMELSSLRSEDTAVYYCARGGYSGSSYYHPMDYWGQGTLVKVSS
notes: also called h26D3 DS T120K
B20: h26D3 HC6 DS V11R T91A (scFv)
scFv: B19 scFv with V170R, T250A, K279T
notes: also called h26D3 DS V11R T91A
B21: h26D3 HC6 DS V11R T120K (scFv)
scFv: B19 scFv with V170R
notes: also called h26D3 DS V11R T120K

How the values were obtained:
[1] = target: T2, truncated hTfR1 of SEQ ID NO:122 (human, UniProt P02786 122-760); experiment: SPR, TfR1 amine-coupled, Fab injected, 1:1 fit
T2 construct: also called human TfR1; Human TfR1
T2 sequence (P02786 other isoform, or with tags, fused parts or gaps limits assumed): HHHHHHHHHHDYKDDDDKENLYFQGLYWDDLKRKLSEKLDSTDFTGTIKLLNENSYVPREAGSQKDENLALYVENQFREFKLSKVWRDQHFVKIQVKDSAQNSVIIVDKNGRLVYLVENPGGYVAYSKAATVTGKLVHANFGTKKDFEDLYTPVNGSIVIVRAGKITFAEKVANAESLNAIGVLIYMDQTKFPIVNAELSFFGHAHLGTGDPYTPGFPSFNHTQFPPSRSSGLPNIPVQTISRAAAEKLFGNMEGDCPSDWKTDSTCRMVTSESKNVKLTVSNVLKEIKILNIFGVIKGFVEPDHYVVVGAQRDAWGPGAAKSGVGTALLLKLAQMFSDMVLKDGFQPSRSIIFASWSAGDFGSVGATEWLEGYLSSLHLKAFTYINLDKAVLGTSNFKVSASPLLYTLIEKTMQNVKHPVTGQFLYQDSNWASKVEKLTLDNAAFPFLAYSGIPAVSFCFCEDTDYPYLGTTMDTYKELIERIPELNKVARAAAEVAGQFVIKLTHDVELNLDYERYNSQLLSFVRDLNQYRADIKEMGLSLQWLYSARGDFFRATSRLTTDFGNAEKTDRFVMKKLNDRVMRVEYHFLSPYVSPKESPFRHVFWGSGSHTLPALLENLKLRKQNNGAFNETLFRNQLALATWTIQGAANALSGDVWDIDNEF
Experimental: (§1) Binding of the purified Fabs to human and cynomolgus TfR1 was evaluated using either SPR (FIG. 44) or indirect ELISA (FIG. 45). For SPR, a Biacore 8K instrument (Cytiva) was used. […] The Fabs were injected over the chip using a 2-fold dilution series in four steps starting at 100 nM. The interaction was measured using the single cycle kinetics method with a contact time of 120 s at a flow rate of 30 μl/min followed by a dissociation time of 1000 s. Regeneration of the surface between cycles was done by injecting 3M MgCl₂. The binding data was fitted to a 1:1 interaction model. The Fabs were diluted in HBS-EP+ (Cytiva, #BR100669). Experiments were performed at 25° C.

[2] = target: T1, truncated cTfR1 of SEQ ID NO:123; experiment: SPR, TfR1 amine-coupled, Fab injected, 1:1 fit
Experimental: as §1

[3] = target: T3, ectodomain of human TfR1 (His10-hTfR1; SEQ ID NO:110) (human, UniProt P02786 89-760); experiment: indirect ELISA: plate coated with 1 µg/ml hTfR1 ectodomain, Fab in 1:3 serial dilution, anti-human IgG F(ab')2-HRP
T3 construct: also called ectodomain of hTfR1
Experimental: For the indirect ELISA, half area 96-well plates (Corning, #3690) were coated with 1 μg/ml recombinant ectodomain of hTfR1 (SEQ ID NO:110) in PBS overnight at 4° C. The coated plates were blocked using Pierce protein-free blocking solution (Thermo Fisher Scientific, #37572) for 1 h at room temperature with shaking and washed four times in PBS containing 0.1% TWEEN-20. Serial dilutions (1:3) of various expressed constructs in incubation buffer (1% BSA, 0.1% TWEEN-20 in PBS) were incubated for 1 h at room temperature. […] Following four wash steps, K-Blue® Aqueous TMB substrate (Neogen, #331177) was added to the wells for 15 min at room temperature before the reaction was stopped with 1:1 dilution of 0.5 M H₂SO₄. The optical density at 450 nm was recorded (Spark, Tecan) and background signal was subtracted before analysis.

[4] = target: T2, truncated hTfR1 of SEQ ID NO:122; experiment: SPR follow-up, 4 replicates, FLAG-captured hTfR1, scFv injected
Experimental: (§2) The interaction was measured using the single cycle kinetics method with a contact time of 120 s at a flow rate of 30 μl/min followed by a dissociation time of 600 s. Regeneration of the surface between cycles was done by injecting 10 mM glycine-HCl, pH 1.7. The binding data was fitted to a 1:1 interaction model. The scFv variants were diluted in HBS-EP+ (Cytiva. #BR100669). Experiments were performed at 25° C.
The selected molecules were produced as described above.

[5] = target: T2, truncated hTfR1 of SEQ ID NO:122; experiment: SPR, FLAG-captured TfR1, scFv injected, 1:1 fit
Experimental: as §2

[6] = target: T1, truncated cTfR1 of SEQ ID NO:123; experiment: SPR, FLAG-captured TfR1, scFv injected, 1:1 fit
Experimental: as §2

| Binder | Kd [1] [nM] | Kd [2] [nM] | binding result [3] | also measured |
| --- | --- | --- | --- | --- |
| B1 | 8.7 | 12 |  |  |
| B2 | 14 | 70 |  |  |
| B3 |  |  | binds |  |
| B4 | 9.2 | 4.6 |  |  |
| B5 | 156 | 164 |  |  |
| B6 | 8.5 | 9.4 |  |  |
| B7 | 10 | 19 |  |  |
| B8 |  |  | binds |  |
| B9 | 388 | 2.7 |  |  |
| B10 |  |  | binds |  |
| B11 |  |  | binds |  |
| B12 | 5.1 | 8 |  |  |
| B13 |  |  | binds |  |
| B14 | 16 | 168 |  |  |
| B15 |  |  | binds |  |
| B16 | 20 | 39 |  |  |
| B17 |  |  | binds |  |
| B18 |  |  | binds |  |
| B19 |  |  |  | Kd [4]: 71.3 nM; koff [4]: 0.00478 s⁻¹; kon [4]: 67300 M⁻¹ s⁻¹; Kd [5]: 59.3 nM; koff [5]: 0.00429 s⁻¹; kon [5]: 75100 M⁻¹ s⁻¹; Kd [6]: 197 nM; koff [6]: 0.0113 s⁻¹; kon [6]: 57400 M⁻¹ s⁻¹ |
| B20 |  |  |  | Kd [4]: 58.7 nM; koff [4]: 0.00419 s⁻¹; kon [4]: 74900 M⁻¹ s⁻¹; Kd [5]: 61.3 nM; koff [5]: 0.00458 s⁻¹; kon [5]: 76100 M⁻¹ s⁻¹; Kd [6]: 206 nM; koff [6]: 0.012 s⁻¹; kon [6]: 58100 M⁻¹ s⁻¹ |
| B21 |  |  |  | Kd [4]: 48.6 nM; koff [4]: 0.00449 s⁻¹; kon [4]: 95700 M⁻¹ s⁻¹; Kd [5]: 60.2 nM; koff [5]: 0.00441 s⁻¹; kon [5]: 73300 M⁻¹ s⁻¹; Kd [6]: 201 nM; koff [6]: 0.0124 s⁻¹; kon [6]: 61300 M⁻¹ s⁻¹ |
